Test results: US6875581 (GENOPIA BIOMEDICAL, dated 2005)
Where no end group is shown, it is not given here. [ ]: non-standard residue; d: D form. pS = N[C@@H](COP(=O)(O)O)C(=O)O

Tests used:
[1] = target: T1, calcineurin-A-beta1/calcineurin-B (human, UniProt P16298 2-524; P63098 1-170); assay: laser fluorescence correlation spectroscopy (FCS)
T1 construct: also called CNAb1-pQE30 product

[2] = target: T2, calcineurin-A-beta2/calcineurin-B (human, UniProt P16298 2-524; P63098 1-170); assay: laser fluorescence correlation spectroscopy (FCS)
T2 construct: also called CNAb2-pQE30 product

B1: RII-Fluophos (peptide)
peptide: DLDVPIPGRFDRRV[pS](fluorescein)VAAE
notes: Synthetic peptide; It was not converted by calcineurin; also called Fluophos-RII-peptide; fluorescent labeled RII-peptide
binding result [1]: binds | binding result [2]: binds
